In patent US20090226415A1, “MODIFIED TRIDEGINS, PRODUCTION AND USE THEREOF AS TRANSGLUTAMINASE INHIBITORS” (priority 2001, published 2009):
Read-outs that look alike come from different tables or passages of the source.

T1: factor XIIIa (Homo sapiens, UniProt P00488)
T1 sequence (P00488 39-732 limits assumed): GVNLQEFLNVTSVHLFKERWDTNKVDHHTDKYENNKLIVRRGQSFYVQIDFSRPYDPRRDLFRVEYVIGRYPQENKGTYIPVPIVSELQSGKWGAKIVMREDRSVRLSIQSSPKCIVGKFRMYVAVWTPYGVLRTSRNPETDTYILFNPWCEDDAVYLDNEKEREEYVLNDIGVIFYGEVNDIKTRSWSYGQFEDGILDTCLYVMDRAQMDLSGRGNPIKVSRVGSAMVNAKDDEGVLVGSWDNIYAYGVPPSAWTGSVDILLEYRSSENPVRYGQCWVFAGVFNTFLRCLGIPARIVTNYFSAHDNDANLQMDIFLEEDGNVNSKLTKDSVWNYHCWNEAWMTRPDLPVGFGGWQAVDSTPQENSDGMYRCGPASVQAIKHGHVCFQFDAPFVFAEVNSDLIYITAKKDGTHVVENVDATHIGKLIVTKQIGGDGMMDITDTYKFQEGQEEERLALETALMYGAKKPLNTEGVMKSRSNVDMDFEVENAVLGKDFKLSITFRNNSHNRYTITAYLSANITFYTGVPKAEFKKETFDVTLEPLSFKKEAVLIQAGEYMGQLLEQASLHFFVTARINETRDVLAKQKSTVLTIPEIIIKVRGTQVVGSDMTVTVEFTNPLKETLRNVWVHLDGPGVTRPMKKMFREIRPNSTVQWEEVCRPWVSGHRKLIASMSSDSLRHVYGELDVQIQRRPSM

B1: SEQ ID No. 1: recombinant wild-type tridegin polypeptide expressed in and purified from Escherichia coli (protein)
chain: MKLLPCKEWHQGIPNPRCWCGADLECAQDQYCAFIPQCRPRSELIKPMDDIYQRPVEFPNLPLKPREE

Experiments:
factor XIIIa [1] = target: T1, factor XIIIa; conditions: Table 1, published inhibitors of factor XIIIa; read-out: Affinity (IC50); cited from earlier work
factor XIIIa [2] = target: T1, factor XIIIa; assay: biochemical; format: biochemical; conditions: for Relative inhibitory effect (%): final variant concentration 5.45 μM
Experimental: The assay is based on factor XIII being activated to form factor XIIIa by thrombin which is present in the reagents. Factor XIIIa links a specific peptide substrate to glycine ethyl ester with ammonium ions being released. The latter are determined in an enzyme reaction which proceeds in parallel. The extinction at 340 nm was used to measure the decrease in NADH. For the measurement, peptides were present in 50% acetonitrile in a stock concentration of 5 mM. The NADH and detection reagents which were supplied by the manufacturer were dissolved in 3 ml of water, with the activator reagent subsequently being dissolved in 3 ml of NADH reagent. For use, the activator and detection reagents were mixed in a ratio of 1:1. In order to carry out the measurement in microtiter plate format, 100 μl of sample (inhibitor or control buffer), 25 μl of factor XIII (10 U/ml) and 150 μl of working reagent were mixed. The measurement was carried out continuously for 20 min at 340 nm, and at 37° C., in a microtiter plate photometer. For the evaluation, the differences in the values measured after 16 and 20 min were compared.
The relative inhibitory effect (%) was determined at a final variant concentration of 5.45 μM. The inhibitory effect of the recombinant tridegin polypeptide was normalized to 100% (at 5.45 μM).
The above-described Berichrom® assay was used to determine the relative inhibitory effect (%) at a final concentration of the peptides of 7.27 μM. The inhibitory effect of the recombinant tridegin polypeptide, at a final concentration of 7.27 μM, was normalized to 100%.
The relative inhibitory effect (%) was determined at a final variant concentration of 5.45 μM. The inhibitory effect of the recombinant wild-type tridegin poly-peptide (at 5.45 μM) was normalized to 100%. The oligonucleotides which were used to produce the abovementioned variants are also specified in the table.

[3] = Analytical gel filtration run for multimeric, high molecular weight aggregates; format: physicochemical; conditions: 20 mM sodium phosphate, pH 8.0, 300 mM NaCl
Source text: These modified tridegins were produced by site-directed mutagenesis of the cysteines present in the wild-type tridegin. The aim of this mutagenesis was to replace, in a step-wise manner, the cysteine residues which are suitable for forming intermolecular disulfide bridges. The tendency to form disulfide bridges, and the aggregation of the end product which accompanies it, were detected by carrying out appropriate chromatographic analyses of the original transglutaminase inhibitor (SEQ ID No. 1) in the presence or absence of reducing agents (e.g. mercaptoethanol and DTT). Thus, in one gel filtration run (on an Amersham-Pharmacia HiPrep 26/60 Sephacryl S200 HR column; 20 mM sodium phosphate, pH 8.0, 300 mM NaCl; 1 ml/min) the purified, recombinant tridegin polypeptide had approximately an 80% content of multimeric, high molecular weight aggregates.

whole citrate blood = assay: Thrombelastography (ROTEG) of coagulation and fibrinolysis in whole citrate blood; design: species or system human
Source text: To do this, what are termed thrombelasto-grams were plotted. Thrombelastography is a current method for measuring coagulation and fibrinolysis. The method measures the change in the viscosity of the blood by the change in the resistance to rotation of a plunger which is present in the blood (Calatzis et al., 2000). […] Thrombelastograms quantify important parameters of haemostasis: • clotting time (time between the initiation of coagulation and the beginning of a measurable change in the viscosity of the blood, CT) • stability of the thrombus (maximum amplitude, maximum clot firmness, MCF) • fibrinolysis time (time between the beginning of a measurable change in blood viscosity and achievement of the starting value prior to the clotting, lysis time, LT).
The ROTEG® instrument supplied by Pentapharm GmbH, Munich, was used for the measurements which are shown. FIGS. 5 and 6 show the thrombelastograms of whole citrate blood after the addition of Ca^2+ (Starteg reagent, from Pentapharm GmbH) and thromboplastin phospholipid (Integ reagent, from Pentapharm GmbH). These reagents are used to induce coagulation. […] This is made clear by […]

Row | Molecule | IC50 (factor XIIIa [1]) | Relative inhibitory effect (%) (factor XIIIa [2]; Table 2, recombinant tridegin polypeptide normalized to 100%) | Relative inhibitory effect (%) (factor XIIIa [2]; Table 4, Cys variants, wild-type tridegin polypeptide normalized to 100%) | IC50 (factor XIIIa [2]; purified recombinant tridegin polypeptide from Escherichia coli, FIG. 3) | content of multimeric, high molecular weight aggregates ([3]; Sephacryl S200 HR, no reducing agent) | content of the aggregates ([3]; reducing conditions: 1.5 mM DTT) | clotting time (CT) (whole citrate blood; FIG. 5 A and B, 190 seconds in the absence of inhibitor) | effect on fibrinolysis brought about by tPA and urokinase (whole citrate blood; lower amplitude and increased rate of fibrinolysis)
1 | C/C=C/C/C=C/CCC(=O)[C@H]1O[C@H]1C(N)=O [Cerulenin] | 29 µM | – | – | – | – | – | – | –
2 | C[C@@H]1CCC/C=C\C(=O)Cc2cc(O)cc(O)c2C(=O)O1 [ZG-1400] | 5.7 µM | – | – | – | – | – | – | –
3 | B1 | – | 100% | 100% | 2 to 4 µM | ~80% | < 20% | 380 s | accelerate and improve the fibrinolysis
